Assays:
[1] = target: angiotensin-converting enzyme 2 (UniProt Q9BYF1 18-805); test: SPR
[2] = target: S-receptor-binding domain (RBD)-Fc of SARS-CoV-2 (SARS-CoV-2, UniProt P0DTC2); test: SPR

angiotensin-converting enzyme 2, sequence (Q9BYF1 18-740): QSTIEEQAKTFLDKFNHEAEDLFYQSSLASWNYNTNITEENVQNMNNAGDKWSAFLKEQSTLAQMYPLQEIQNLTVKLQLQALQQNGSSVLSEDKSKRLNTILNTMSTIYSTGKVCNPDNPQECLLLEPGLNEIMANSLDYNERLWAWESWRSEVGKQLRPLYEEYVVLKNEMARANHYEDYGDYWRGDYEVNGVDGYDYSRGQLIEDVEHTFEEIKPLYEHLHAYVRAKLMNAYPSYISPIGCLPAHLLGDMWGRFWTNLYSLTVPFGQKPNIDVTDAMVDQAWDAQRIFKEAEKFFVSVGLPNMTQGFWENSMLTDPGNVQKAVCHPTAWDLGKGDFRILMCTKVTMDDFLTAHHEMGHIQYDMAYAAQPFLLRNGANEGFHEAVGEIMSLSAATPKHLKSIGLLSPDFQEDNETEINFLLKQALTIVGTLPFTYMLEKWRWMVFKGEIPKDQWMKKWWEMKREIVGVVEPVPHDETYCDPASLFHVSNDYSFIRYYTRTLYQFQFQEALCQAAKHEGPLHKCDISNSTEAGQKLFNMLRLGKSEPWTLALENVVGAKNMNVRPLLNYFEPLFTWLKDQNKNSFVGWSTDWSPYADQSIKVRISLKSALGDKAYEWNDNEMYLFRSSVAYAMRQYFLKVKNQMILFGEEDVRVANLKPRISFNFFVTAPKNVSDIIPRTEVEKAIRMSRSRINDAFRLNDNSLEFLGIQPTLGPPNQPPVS

B1: antibacterial peptide DP7 (peptide)
peptide: VQWRIRVAVIRK
koff [1]: 0.00918 s⁻¹
koff [2]: 0.00501 s⁻¹
